Reference: publication PMC11386428

Assays:
[1] = target: tau_(1N4R), full-length 1N4R tau, labelled with Alexa Fluor 488 (human (by the printed UniProt entry)); assay: fluorescence correlation spectroscopy (FCS); ~20 nM fluorescent protein (Alexa 488-labelled tau construct or eGFP) with unlabelled αS seeds at 20, 60 or 100 nM (monomer units); 20°C; 50 mM Na2HPO4, 50 mM NaCl pH 7.0; two-component diffusion fit, medians of type III curves
[2] = target: tau4R, the microtubule-binding region with R1-R4, labelled with Alexa Fluor 488 (human (by the printed UniProt entry)); assay: as above

αS_(1-100) seeds (sonicated fibrils of N-terminally acetylated αS_(1-100)) (from UniProt P37840 1-100) (complex)
Q (brightness of bound tau relative to monomer tau) at 20 nM αS (1-100) seeds [1]: 2.3
Q (brightness of bound tau relative to monomer tau) at 60 nM αS (1-100) seeds [1]: 2
Q (brightness of bound tau relative to monomer tau) at 100 nM αS (1-100) seeds [1]: 2.7
median fB (fraction of tau with τD2) at 20 nM αS (1-100) seeds [1]: 0.055
median fB (fraction of tau with τD2) at 60 nM αS (1-100) seeds [1]: 0.053
median fB (fraction of tau with τD2) at 100 nM αS (1-100) seeds [1]: 0.16
median type III τ (D2app) at 20 nM αS (1-100) seeds [1]: 2.8 ms
median type III τ (D2app) at 60 nM αS (1-100) seeds [1]: 2.3 ms
median type III τ (D2app) at 100 nM αS (1-100) seeds [1]: 2.2 ms
Q (brightness of bound tau relative to monomer tau) at 20 nM αS (1-100) seeds [2]: 1
Q (brightness of bound tau relative to monomer tau) at 60 nM αS (1-100) seeds [2]: 1
Q (brightness of bound tau relative to monomer tau) at 100 nM αS (1-100) seeds [2]: 1
median fB (fraction of tau with τD2) at 20 nM αS (1-100) seeds [2]: 0.023
median fB (fraction of tau with τD2) at 60 nM αS (1-100) seeds [2]: 0.11
median fB (fraction of tau with τD2) at 100 nM αS (1-100) seeds [2]: 0.11
median type III τ (D2app) at 20 nM αS (1-100) seeds [2]: 2.1 ms
median type III τ (D2app) at 60 nM αS (1-100) seeds [2]: 1.8 ms
median type III τ (D2app) at 100 nM αS (1-100) seeds [2]: 2.8 ms
